Drawing on US20250368745A1 (published 2025), this text covers Kd for 21 molecules.

Where “and” joins values, the source holds several entries; their conditions need not be identical. Equal values may be shown once.

Sequences and labels used below:
T1: human IL-18BP (human, UniProt O95998 31-194)
T1 construct: UniProt printed as 095998; also called hIL-18BP
T1 sequence: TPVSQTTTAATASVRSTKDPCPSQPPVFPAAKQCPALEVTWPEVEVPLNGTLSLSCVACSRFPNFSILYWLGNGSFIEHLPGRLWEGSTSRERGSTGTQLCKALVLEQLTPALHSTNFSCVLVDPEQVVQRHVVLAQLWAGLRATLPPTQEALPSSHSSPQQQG

B1: SA301a HC-Y59L (antibody, name in Kabat numbering, V domains shown)
VH: QVQLQESGPGLVKPSQTLSLTCTVSGYSITSDYNSHWIRQPPGKGLEWIGYIHYSGSTNLNPSLKSRVTISRDTSKNQFSLKLSSVTAADTAVYYCARNYGSIYVNYFDYWGQGTLVTVSS
VL: EIVLTQSPATLSLSPGERATLSCSASSSVSYMYWYQQKPGQAPRPLIYRTSNLASGIPARFSGSGSGTDFTLTISSLEPEDFAVYYCQQYHSYPTFGGGTKVEIK
notes: IgG1 kappa
B2: SA301a HC-Y59S (antibody, name in Kabat numbering, V domains shown)
VH: QVQLQESGPGLVKPSQTLSLTCTVSGYSITSDYNSHWIRQPPGKGLEWIGYIHYSGSTNSNPSLKSRVTISRDTSKNQFSLKLSSVTAADTAVYYCARNYGSIYVNYFDYWGQGTLVTVSS
VL: EIVLTQSPATLSLSPGERATLSCSASSSVSYMYWYQQKPGQAPRPLIYRTSNLASGIPARFSGSGSGTDFTLTISSLEPEDFAVYYCQQYHSYPTFGGGTKVEIK
notes: IgG1 kappa
B3: SA301a HC-Y59Q (antibody, name in Kabat numbering, V domains shown)
VH: QVQLQESGPGLVKPSQTLSLTCTVSGYSITSDYNSHWIRQPPGKGLEWIGYIHYSGSTNQNPSLKSRVTISRDTSKNQFSLKLSSVTAADTAVYYCARNYGSIYVNYFDYWGQGTLVTVSS
VL: EIVLTQSPATLSLSPGERATLSCSASSSVSYMYWYQQKPGQAPRPLIYRTSNLASGIPARFSGSGSGTDFTLTISSLEPEDFAVYYCQQYHSYPTFGGGTKVEIK
notes: IgG1 kappa
B4: SA301a HC-Y59V (antibody, name in Kabat numbering, V domains shown)
VH: QVQLQESGPGLVKPSQTLSLTCTVSGYSITSDYNSHWIRQPPGKGLEWIGYIHYSGSTNVNPSLKSRVTISRDTSKNQFSLKLSSVTAADTAVYYCARNYGSIYVNYFDYWGQGTLVTVSS
VL: EIVLTQSPATLSLSPGERATLSCSASSSVSYMYWYQQKPGQAPRPLIYRTSNLASGIPARFSGSGSGTDFTLTISSLEPEDFAVYYCQQYHSYPTFGGGTKVEIK
notes: IgG1 kappa
B5: SA301a HC-Y59T (antibody, name in Kabat numbering, V domains shown)
VH: QVQLQESGPGLVKPSQTLSLTCTVSGYSITSDYNSHWIRQPPGKGLEWIGYIHYSGSTNTNPSLKSRVTISRDTSKNQFSLKLSSVTAADTAVYYCARNYGSIYVNYFDYWGQGTLVTVSS
VL: EIVLTQSPATLSLSPGERATLSCSASSSVSYMYWYQQKPGQAPRPLIYRTSNLASGIPARFSGSGSGTDFTLTISSLEPEDFAVYYCQQYHSYPTFGGGTKVEIK
notes: IgG1 kappa
B6: SA301a HC-Y59N (antibody, name in Kabat numbering, V domains shown)
VH: QVQLQESGPGLVKPSQTLSLTCTVSGYSITSDYNSHWIRQPPGKGLEWIGYIHYSGSTNNNPSLKSRVTISRDTSKNQFSLKLSSVTAADTAVYYCARNYGSIYVNYFDYWGQGTLVTVSS
VL: EIVLTQSPATLSLSPGERATLSCSASSSVSYMYWYQQKPGQAPRPLIYRTSNLASGIPARFSGSGSGTDFTLTISSLEPEDFAVYYCQQYHSYPTFGGGTKVEIK
notes: IgG1 kappa
B7: SA301a HC-Y59R (antibody, name in Kabat numbering, V domains shown)
VH: QVQLQESGPGLVKPSQTLSLTCTVSGYSITSDYNSHWIRQPPGKGLEWIGYIHYSGSTNRNPSLKSRVTISRDTSKNQFSLKLSSVTAADTAVYYCARNYGSIYVNYFDYWGQGTLVTVSS
VL: EIVLTQSPATLSLSPGERATLSCSASSSVSYMYWYQQKPGQAPRPLIYRTSNLASGIPARFSGSGSGTDFTLTISSLEPEDFAVYYCQQYHSYPTFGGGTKVEIK
notes: IgG1 kappa
B8: SA301a HC-Y59P (antibody, name in Kabat numbering, V domains shown)
VH: QVQLQESGPGLVKPSQTLSLTCTVSGYSITSDYNSHWIRQPPGKGLEWIGYIHYSGSTNPNPSLKSRVTISRDTSKNQFSLKLSSVTAADTAVYYCARNYGSIYVNYFDYWGQGTLVTVSS
VL: EIVLTQSPATLSLSPGERATLSCSASSSVSYMYWYQQKPGQAPRPLIYRTSNLASGIPARFSGSGSGTDFTLTISSLEPEDFAVYYCQQYHSYPTFGGGTKVEIK
notes: IgG1 kappa
B9: SA302a HC-H35V (antibody, V domains shown)
VH: QVQLQESGPGLVKPSQTLSLTCTVSGYSITSDYNAVWIRQPPGKGLEWIGYIHYSGSTNYNPSLKSRVTISRDTSKNQFSLKLSSVTAADTAVYYCARNYGSIYVNYFDYWGQGTLVTVSS
VL: EIVLTQSPATLSLSPGERATLSCSASSSVSYMYWYQQKPGQAPRPLIYRTSNLASGIPARFSGSGSGTDFTLTISSLEPEDFAVYYCQQYHSYPTFGGGTKVEIK
notes: IgG1 kappa
B10: SA302a HC-H35E (antibody, V domains shown)
VH: QVQLQESGPGLVKPSQTLSLTCTVSGYSITSDYNAEWIRQPPGKGLEWIGYIHYSGSTNYNPSLKSRVTISRDTSKNQFSLKLSSVTAADTAVYYCARNYGSIYVNYFDYWGQGTLVTVSS
VL: EIVLTQSPATLSLSPGERATLSCSASSSVSYMYWYQQKPGQAPRPLIYRTSNLASGIPARFSGSGSGTDFTLTISSLEPEDFAVYYCQQYHSYPTFGGGTKVEIK
notes: IgG1 kappa
B11: SA302a HC-H35M (antibody, V domains shown)
VH: QVQLQESGPGLVKPSQTLSLTCTVSGYSITSDYNAMWIRQPPGKGLEWIGYIHYSGSTNYNPSLKSRVTISRDTSKNQFSLKLSSVTAADTAVYYCARNYGSIYVNYFDYWGQGTLVTVSS
VL: EIVLTQSPATLSLSPGERATLSCSASSSVSYMYWYQQKPGQAPRPLIYRTSNLASGIPARFSGSGSGTDFTLTISSLEPEDFAVYYCQQYHSYPTFGGGTKVEIK
notes: IgG1 kappa
B12: SA302a HC-H35P (antibody, V domains shown)
VH: QVQLQESGPGLVKPSQTLSLTCTVSGYSITSDYNAPWIRQPPGKGLEWIGYIHYSGSTNYNPSLKSRVTISRDTSKNQFSLKLSSVTAADTAVYYCARNYGSIYVNYFDYWGQGTLVTVSS
VL: EIVLTQSPATLSLSPGERATLSCSASSSVSYMYWYQQKPGQAPRPLIYRTSNLASGIPARFSGSGSGTDFTLTISSLEPEDFAVYYCQQYHSYPTFGGGTKVEIK
notes: IgG1 kappa
B13: SA302a HC-H35A (antibody, V domains shown)
VH: QVQLQESGPGLVKPSQTLSLTCTVSGYSITSDYNAAWIRQPPGKGLEWIGYIHYSGSTNYNPSLKSRVTISRDTSKNQFSLKLSSVTAADTAVYYCARNYGSIYVNYFDYWGQGTLVTVSS
VL: EIVLTQSPATLSLSPGERATLSCSASSSVSYMYWYQQKPGQAPRPLIYRTSNLASGIPARFSGSGSGTDFTLTISSLEPEDFAVYYCQQYHSYPTFGGGTKVEIK
notes: IgG1 kappa
B14: SA302a HC-D33Q (antibody, V domains shown)
VH: QVQLQESGPGLVKPSQTLSLTCTVSGYSITSQYNAHWIRQPPGKGLEWIGYIHYSGSTNYNPSLKSRVTISRDTSKNQFSLKLSSVTAADTAVYYCARNYGSIYVNYFDYWGQGTLVTVSS
VL: EIVLTQSPATLSLSPGERATLSCSASSSVSYMYWYQQKPGQAPRPLIYRTSNLASGIPARFSGSGSGTDFTLTISSLEPEDFAVYYCQQYHSYPTFGGGTKVEIK
notes: IgG1 kappa
B15: SA302a HC-H35T (antibody, V domains shown)
VH: QVQLQESGPGLVKPSQTLSLTCTVSGYSITSDYNATWIRQPPGKGLEWIGYIHYSGSTNYNPSLKSRVTISRDTSKNQFSLKLSSVTAADTAVYYCARNYGSIYVNYFDYWGQGTLVTVSS
VL: EIVLTQSPATLSLSPGERATLSCSASSSVSYMYWYQQKPGQAPRPLIYRTSNLASGIPARFSGSGSGTDFTLTISSLEPEDFAVYYCQQYHSYPTFGGGTKVEIK
notes: IgG1 kappa
B16: SA302a HC-D33G (antibody, V domains shown)
VH: QVQLQESGPGLVKPSQTLSLTCTVSGYSITSGYNAHWIRQPPGKGLEWIGYIHYSGSTNYNPSLKSRVTISRDTSKNQFSLKLSSVTAADTAVYYCARNYGSIYVNYFDYWGQGTLVTVSS
VL: EIVLTQSPATLSLSPGERATLSCSASSSVSYMYWYQQKPGQAPRPLIYRTSNLASGIPARFSGSGSGTDFTLTISSLEPEDFAVYYCQQYHSYPTFGGGTKVEIK
notes: IgG1 kappa
B17: SA302a HC-D33E (antibody, V domains shown)
VH: QVQLQESGPGLVKPSQTLSLTCTVSGYSITSEYNAHWIRQPPGKGLEWIGYIHYSGSTNYNPSLKSRVTISRDTSKNQFSLKLSSVTAADTAVYYCARNYGSIYVNYFDYWGQGTLVTVSS
VL: EIVLTQSPATLSLSPGERATLSCSASSSVSYMYWYQQKPGQAPRPLIYRTSNLASGIPARFSGSGSGTDFTLTISSLEPEDFAVYYCQQYHSYPTFGGGTKVEIK
notes: IgG1 kappa
B18: SA302a HC-D33V (antibody, V domains shown)
VH: QVQLQESGPGLVKPSQTLSLTCTVSGYSITSVYNAHWIRQPPGKGLEWIGYIHYSGSTNYNPSLKSRVTISRDTSKNQFSLKLSSVTAADTAVYYCARNYGSIYVNYFDYWGQGTLVTVSS
VL: EIVLTQSPATLSLSPGERATLSCSASSSVSYMYWYQQKPGQAPRPLIYRTSNLASGIPARFSGSGSGTDFTLTISSLEPEDFAVYYCQQYHSYPTFGGGTKVEIK
notes: IgG1 kappa
B19: SA302a HC-D33T (antibody, V domains shown)
VH: QVQLQESGPGLVKPSQTLSLTCTVSGYSITSTYNAHWIRQPPGKGLEWIGYIHYSGSTNYNPSLKSRVTISRDTSKNQFSLKLSSVTAADTAVYYCARNYGSIYVNYFDYWGQGTLVTVSS
VL: EIVLTQSPATLSLSPGERATLSCSASSSVSYMYWYQQKPGQAPRPLIYRTSNLASGIPARFSGSGSGTDFTLTISSLEPEDFAVYYCQQYHSYPTFGGGTKVEIK
notes: IgG1 kappa
B20: SA302a HC-D33Y (antibody, V domains shown)
VH: QVQLQESGPGLVKPSQTLSLTCTVSGYSITSYYNAHWIRQPPGKGLEWIGYIHYSGSTNYNPSLKSRVTISRDTSKNQFSLKLSSVTAADTAVYYCARNYGSIYVNYFDYWGQGTLVTVSS
VL: EIVLTQSPATLSLSPGERATLSCSASSSVSYMYWYQQKPGQAPRPLIYRTSNLASGIPARFSGSGSGTDFTLTISSLEPEDFAVYYCQQYHSYPTFGGGTKVEIK
notes: IgG1 kappa
B21: SA302a HC-H35K (antibody, V domains shown)
VH: QVQLQESGPGLVKPSQTLSLTCTVSGYSITSDYNAKWIRQPPGKGLEWIGYIHYSGSTNYNPSLKSRVTISRDTSKNQFSLKLSSVTAADTAVYYCARNYGSIYVNYFDYWGQGTLVTVSS
VL: EIVLTQSPATLSLSPGERATLSCSASSSVSYMYWYQQKPGQAPRPLIYRTSNLASGIPARFSGSGSGTDFTLTISSLEPEDFAVYYCQQYHSYPTFGGGTKVEIK
notes: IgG1 kappa

In the first assay the target is T1, human IL-18BP. In words: BLI, apparent KD. Background: Biolayer interferometry detects binding as a change in optical thickness at a sensor tip.
With B1, the Kd amounted to 0.42 nM. Still for that read-out and setting: the figure for B2 is 1.57 nM; for B3 it is 0.35 nM; for B4 it is 0.38 nM.

As for B5, the Kd worked out at 0.14 nM. Consider B6, for which the Kd is 0.79 nM. Regarding B7, the Kd is 0.42 nM. Same read-out and setting: the same measure for B8: 0.08 nM.

A further assay concerns the target T1, human IL-18BP. The assay is described as follows: BLI, apparent KD. This is another data set of the same source.
As for B9, the Kd came to 2.42 nM.

On to B10, for which the Kd is 1.57 nM. On the same count and under the same terms, the same measure for B11: 2.18 nM. Still for that read-out and setting: the figure for B12 is 0.88 nM; for B13 it is 6.41 nM. Turning to B14, the Kd came out at 2.92 nM.

Turning to B15, the Kd worked out at 2.23 nM. Same read-out and setting: the same measure for B16: 3.95 nM; for B17: 1.76 nM. Consider B18, for which the Kd was found to be 5.42 nM. The same measure, in the same setting: the same measure for B19: 5.17 nM and 8.95 nM.

For the molecule B20, the Kd turned out to be 3.79 nM.

With B21, the Kd is 0.44 nM.
